According to the supplement of paper PMC7125110:
This sample holds only a part of the variants without activity.

B1: glmS ribozyme (parent)
chain: AUAAAAGCGCCAGAACUACAGAAAUGUAGUUGACGAGGAGGAGGUUUAUCGAAUUUUCGGCGGAUGCCUCCAAA

Columns and labels:
Conditions in all cases: with glucosamine-6-phosphate
glucosamine-6-phosphate [1] = variants of: B1; assay: self-cleavage kobs at 40 uM GlcN6P; higher = faster cleavage; RNA array
In short: (§1)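 Glucosamine-6-phosphate (40 μM to 10 mM) in HEPES/KCl/Mg(OAc)2 buffer was flowed over sequenced MiSeq chips, and tiles were imaged over ~14 h. Barcoded ribozyme variants there had been transcribed in situ by E. coli RNA polymerase and were tracked through a hybridised Cy3 probe at 37 °C. One- or two-exponential decay fits to per-tile medians, normalised to baseline and to non-cleaving reference variants, gave kobs. kcat and KM came from weighted Michaelis–Menten fits across concentrations.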

glucosamine-6-phosphate [2] = variants of: B1; assay: self-cleavage kobs at 160 uM GlcN6P; higher = faster cleavage; RNA array
In short: as §1

glucosamine-6-phosphate [3] = variants of: B1; assay: self-cleavage kobs at 640 uM GlcN6P; higher = faster cleavage; RNA array
In short: as §1

glucosamine-6-phosphate [4] = variants of: B1; assay: self-cleavage kobs at 2500 uM GlcN6P; higher = faster cleavage; RNA array
In short: as §1

glucosamine-6-phosphate [5] = variants of: B1; assay: self-cleavage kobs at 10000 uM GlcN6P; higher = faster cleavage; RNA array
In short: as §1

AUAAAAGCGCCAGAACUACAGAAAUGUAGUUGACGAGGAGGAGGUUUAUCGAAUUUUAGGCGUAUGCCCCCAAA [C58A G63U U69C]
< 1e-05 s⁻¹: self-cleavage kobs at 40 uM GlcN6P (glucosamine-6-phosphate [1])

AUAAAAGCGCCAGAACUACAGAAAUGUAGUUGACGAGGAGGAGGUUUAUCGAAUUUUCGUCGGAAGCCUCCAAA [G60U U65A]
< 1e-05 s⁻¹: self-cleavage kobs at 40 uM GlcN6P (glucosamine-6-phosphate [1]) | self-cleavage kobs at 160 uM GlcN6P (glucosamine-6-phosphate [2]) | self-cleavage kobs at 640 uM GlcN6P (glucosamine-6-phosphate [3]) | self-cleavage kobs at 2500 uM GlcN6P (glucosamine-6-phosphate [4]) | self-cleavage kobs at 10000 uM GlcN6P (glucosamine-6-phosphate [5])

AUAAAAGCGCCAGAACUACAGAAAUGUAGUUGACGAGGAGGAGGUUUAUCGAAUUUUCGUCGGAUGCCUGCAAA [G60U C70G]
< 1e-05 s⁻¹: self-cleavage kobs at 40 uM GlcN6P (glucosamine-6-phosphate [1]) | self-cleavage kobs at 10000 uM GlcN6P (glucosamine-6-phosphate [5])

AUAAAAGCGCCAGAACUACAGAAAUGUAGUUGACGAGGAGGAGGUUUAUCGAAUUUUCAGCGGUUGCCUCCAAA [G59A A64U]
< 1e-05 s⁻¹: self-cleavage kobs at 40 uM GlcN6P (glucosamine-6-phosphate [1]) | self-cleavage kobs at 2500 uM GlcN6P (glucosamine-6-phosphate [4]) | self-cleavage kobs at 10000 uM GlcN6P (glucosamine-6-phosphate [5])

AUAAAAGCGCCAGAACUACAGAAAUGUAGUUGACGAGGAGGAGGUUUAUCGAAUUUUCGGCUGAUGGCUCCAAA [G62U C67G]
< 1e-05 s⁻¹: self-cleavage kobs at 40 uM GlcN6P (glucosamine-6-phosphate [1]) | self-cleavage kobs at 640 uM GlcN6P (glucosamine-6-phosphate [3]) | self-cleavage kobs at 10000 uM GlcN6P (glucosamine-6-phosphate [5])

AUAAAAGCGCCAGAACUACAGAAAUGUAGUUGACGAGGAGGAGGUUUAUCGAAUUUUCGGCUAAUGCCUCCAAA [G62U G63A]
< 1e-05 s⁻¹: self-cleavage kobs at 40 uM GlcN6P (glucosamine-6-phosphate [1]) | self-cleavage kobs at 160 uM GlcN6P (glucosamine-6-phosphate [2]) | self-cleavage kobs at 640 uM GlcN6P (glucosamine-6-phosphate [3]) | self-cleavage kobs at 2500 uM GlcN6P (glucosamine-6-phosphate [4]) | self-cleavage kobs at 10000 uM GlcN6P (glucosamine-6-phosphate [5])

AUAAAAGCGCCAGAACUACAGAAAUGUAGUUGACGAGGAGGAGGUUUAUCGAAUUUUCGACGGUUGCCUCCAAA [G60A A64U]
< 1e-05 s⁻¹: self-cleavage kobs at 40 uM GlcN6P (glucosamine-6-phosphate [1]) | self-cleavage kobs at 640 uM GlcN6P (glucosamine-6-phosphate [3]) | self-cleavage kobs at 2500 uM GlcN6P (glucosamine-6-phosphate [4])

AUAAAAGCGCCAGAACUACAGAAAUGUAGUUGACGAGGAGGAGGUUUAUCGAAUUUUCGCCCGAUGCCUCCAAA [G60C G62C]
< 1e-05 s⁻¹: self-cleavage kobs at 40 uM GlcN6P (glucosamine-6-phosphate [1]) | self-cleavage kobs at 160 uM GlcN6P (glucosamine-6-phosphate [2])

AUAAAAGCGCCAGAACUACAGAAAUGUAGUUGACGAGGAGGAGGUUUAUCGAAUUUUUCGCGGAUGCCUCCAAA [C58U G59C]
< 1e-05 s⁻¹: self-cleavage kobs at 40 uM GlcN6P (glucosamine-6-phosphate [1])

AUAAAAGCGCCAGAACUACAGAAAUGUAGUUGACGAGGAGGAGGUUUAUCGAAUUUUCGACGGAUACCUCCAAA [G60A G66A]
< 1e-05 s⁻¹: self-cleavage kobs at 40 uM GlcN6P (glucosamine-6-phosphate [1]) | self-cleavage kobs at 160 uM GlcN6P (glucosamine-6-phosphate [2])

AUAAAAGCGCCAGAACUACAGAAAUGUAGUUGACGAGGAGGAGGUUUAUCGAAUUUUCGACGGAUUCCUCCAAA [G60A G66U]
< 1e-05 s⁻¹: self-cleavage kobs at 40 uM GlcN6P (glucosamine-6-phosphate [1]) | self-cleavage kobs at 160 uM GlcN6P (glucosamine-6-phosphate [2]) | self-cleavage kobs at 640 uM GlcN6P (glucosamine-6-phosphate [3]) | self-cleavage kobs at 10000 uM GlcN6P (glucosamine-6-phosphate [5])

AUAAAAGCGCCAGAACUACAGAAAUGUAGUUGACGAGGAGGAGGUUUAUCGAAUUUUUGACGGAUGCCUCCAAA [C58U G60A]
< 1e-05 s⁻¹: self-cleavage kobs at 40 uM GlcN6P (glucosamine-6-phosphate [1]) | self-cleavage kobs at 640 uM GlcN6P (glucosamine-6-phosphate [3]) | self-cleavage kobs at 2500 uM GlcN6P (glucosamine-6-phosphate [4]) | self-cleavage kobs at 10000 uM GlcN6P (glucosamine-6-phosphate [5])

AUAAAAGCGCCAGAACUACAGAAAUGUAGUUGACGAGGAGGAGGUUUAUCGAAUUUUCGGCCGAUGGCUCCAAA [G62C C67G]
< 1e-05 s⁻¹: self-cleavage kobs at 40 uM GlcN6P (glucosamine-6-phosphate [1]) | self-cleavage kobs at 640 uM GlcN6P (glucosamine-6-phosphate [3]) | self-cleavage kobs at 2500 uM GlcN6P (glucosamine-6-phosphate [4]) | self-cleavage kobs at 10000 uM GlcN6P (glucosamine-6-phosphate [5])

AUAAAAGCGCCAGAACUACAGAAAUGUAGUUGACGAGGAGGAGGUUUAUCGAAUUUUCGGCCAAUGCCUCCAAA [G62C G63A]
< 1e-05 s⁻¹: self-cleavage kobs at 40 uM GlcN6P (glucosamine-6-phosphate [1]) | self-cleavage kobs at 160 uM GlcN6P (glucosamine-6-phosphate [2]) | self-cleavage kobs at 640 uM GlcN6P (glucosamine-6-phosphate [3]) | self-cleavage kobs at 2500 uM GlcN6P (glucosamine-6-phosphate [4])

AUAAAAGCGCCAGAACUACAGAAAUGUAGUUGACGAGGAGGAGGUUUAUCGAAUUUUAGGCGGUUGCCUCCAAA [C58A A64U]
< 1e-05 s⁻¹: self-cleavage kobs at 40 uM GlcN6P (glucosamine-6-phosphate [1]) | self-cleavage kobs at 2500 uM GlcN6P (glucosamine-6-phosphate [4]) | self-cleavage kobs at 10000 uM GlcN6P (glucosamine-6-phosphate [5])

AUAAAAGCGCCAGAACUACAGAAAUGUAGUUGACGAGGAGGAGGUUUAUCGAAUUUUUGGCAGAUGCCUCCAAA [C58U G62A]
< 1e-05 s⁻¹: self-cleavage kobs at 40 uM GlcN6P (glucosamine-6-phosphate [1]) | self-cleavage kobs at 160 uM GlcN6P (glucosamine-6-phosphate [2]) | self-cleavage kobs at 640 uM GlcN6P (glucosamine-6-phosphate [3]) | self-cleavage kobs at 2500 uM GlcN6P (glucosamine-6-phosphate [4]) | self-cleavage kobs at 10000 uM GlcN6P (glucosamine-6-phosphate [5])

AUAAAAGCGCCAGAACUACAGAAAUGUAGUUGACGAGGAGGAGGUUUAUCGAAUUUUAUUCGGAUGCCUCCAAA [C58A G59U G60U]
< 1e-05 s⁻¹: self-cleavage kobs at 40 uM GlcN6P (glucosamine-6-phosphate [1]) | self-cleavage kobs at 10000 uM GlcN6P (glucosamine-6-phosphate [5])

AUAAAAGCGCCAGAACUACAGAAAUGUAGUUGACGAGGAGGAGGUUUAUCGAAUUUCCGGCUGAUGCCUACAAA [U57C G62U C70A]
< 1e-05 s⁻¹: self-cleavage kobs at 40 uM GlcN6P (glucosamine-6-phosphate [1])

AUAAAAGCGCCAGAACUACAGAAAUGUAGUUGACGAGGAGGAGGUUUAUCGAAUUUUCCGCGGAUGCCUCCAAA [G59C]
< 1e-05 s⁻¹: self-cleavage kobs at 40 uM GlcN6P (glucosamine-6-phosphate [1]) | self-cleavage kobs at 160 uM GlcN6P (glucosamine-6-phosphate [2]) | self-cleavage kobs at 640 uM GlcN6P (glucosamine-6-phosphate [3]) | self-cleavage kobs at 10000 uM GlcN6P (glucosamine-6-phosphate [5])

AUAAAAGCGCCAGAACUACAGAAAUGUAGUUGACGAGGAGGAGGUUUAUCGAAUUUUCGGUGGGUGCCUGCAAA [C61U A64G C70G]
< 1e-05 s⁻¹: self-cleavage kobs at 40 uM GlcN6P (glucosamine-6-phosphate [1])

AUAAAAGCGCCAGAACUACAGAAAUGUAGUUGACGAGGAGGAGGUUUAUCGAAUUUUCGGCGAAUGCCUCCAAA [G63A]
< 1e-05 s⁻¹: self-cleavage kobs at 40 uM GlcN6P (glucosamine-6-phosphate [1]) | self-cleavage kobs at 640 uM GlcN6P (glucosamine-6-phosphate [3]) | self-cleavage kobs at 10000 uM GlcN6P (glucosamine-6-phosphate [5])

AUAAAAGCGCCAGAACUACAGAAAUGUAGUUGACGAGGAGGAGGUUUAUCGAAUUUUCGGCGCAUGCCUCCAAA [G63C]
< 1e-05 s⁻¹: self-cleavage kobs at 40 uM GlcN6P (glucosamine-6-phosphate [1]) | self-cleavage kobs at 160 uM GlcN6P (glucosamine-6-phosphate [2]) | self-cleavage kobs at 640 uM GlcN6P (glucosamine-6-phosphate [3]) | self-cleavage kobs at 2500 uM GlcN6P (glucosamine-6-phosphate [4]) | self-cleavage kobs at 10000 uM GlcN6P (glucosamine-6-phosphate [5])

AUAAAAGCGCCAGAACUACAGAAAUGUAGUUGACGAGGAGGAGGUUUAUCGAAUUUUCGCCGGAUGCCCCCAAA [G60C U69C]
< 1e-05 s⁻¹: self-cleavage kobs at 40 uM GlcN6P (glucosamine-6-phosphate [1]) | self-cleavage kobs at 10000 uM GlcN6P (glucosamine-6-phosphate [5])

AUAAAAGCGCCAGAACUACAGAAAUGUAGUUGACGAGGAGGAGGUUUAUCGAAUUUUCGCCGGAUGCCGCCAAA [G60C U69G]
< 1e-05 s⁻¹: self-cleavage kobs at 40 uM GlcN6P (glucosamine-6-phosphate [1]) | self-cleavage kobs at 160 uM GlcN6P (glucosamine-6-phosphate [2]) | self-cleavage kobs at 10000 uM GlcN6P (glucosamine-6-phosphate [5])

AUAAAAGCGCCAGAACUACAGAAAUGUAGUUGACGAGGAGGAGGUUUAUCGAAUUUUCGUCGGGUGCCUCCAAA [G60U A64G]
< 1e-05 s⁻¹: self-cleavage kobs at 40 uM GlcN6P (glucosamine-6-phosphate [1]) | self-cleavage kobs at 160 uM GlcN6P (glucosamine-6-phosphate [2]) | self-cleavage kobs at 640 uM GlcN6P (glucosamine-6-phosphate [3]) | self-cleavage kobs at 2500 uM GlcN6P (glucosamine-6-phosphate [4]) | self-cleavage kobs at 10000 uM GlcN6P (glucosamine-6-phosphate [5])
